{
  "source": "patent US20230183713A1",
  "about": "“SITE-SPECIFIC RECOMBINASES FOR EFFICIENT AND SPECIFIC GENOME EDITING” (TECHNISCHE UNIVERSITÄt DRESDEN, published 2023)",
  "key": {"[1]": {"molecular_target": "T1, Cre recombinase monomer with Y324N mutation", "T1 chain": "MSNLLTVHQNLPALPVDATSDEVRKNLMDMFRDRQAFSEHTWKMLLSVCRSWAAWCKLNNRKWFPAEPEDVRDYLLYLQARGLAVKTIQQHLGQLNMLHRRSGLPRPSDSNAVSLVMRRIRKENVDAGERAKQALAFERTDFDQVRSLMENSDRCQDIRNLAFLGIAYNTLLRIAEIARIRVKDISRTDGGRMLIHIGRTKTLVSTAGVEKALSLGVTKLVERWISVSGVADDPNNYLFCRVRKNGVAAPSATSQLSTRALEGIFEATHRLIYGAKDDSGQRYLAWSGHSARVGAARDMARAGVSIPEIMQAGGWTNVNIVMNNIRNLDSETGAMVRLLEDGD"}, "[2]": {"molecular_target": "T2, Cre recombinase monomer with Y324H mutation", "T2 chain": "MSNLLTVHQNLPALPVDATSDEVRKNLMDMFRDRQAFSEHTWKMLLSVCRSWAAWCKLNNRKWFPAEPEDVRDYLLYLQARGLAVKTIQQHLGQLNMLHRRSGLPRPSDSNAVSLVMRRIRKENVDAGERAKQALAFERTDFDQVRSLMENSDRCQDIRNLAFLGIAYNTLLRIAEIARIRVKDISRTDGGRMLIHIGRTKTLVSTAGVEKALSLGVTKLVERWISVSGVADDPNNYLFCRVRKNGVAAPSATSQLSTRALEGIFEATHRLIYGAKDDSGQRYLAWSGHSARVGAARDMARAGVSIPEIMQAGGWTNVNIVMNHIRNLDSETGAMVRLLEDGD"}, "[3]": {"molecular_target": "T3, Cre recombinase monomer with W315V mutation", "T3 chain": "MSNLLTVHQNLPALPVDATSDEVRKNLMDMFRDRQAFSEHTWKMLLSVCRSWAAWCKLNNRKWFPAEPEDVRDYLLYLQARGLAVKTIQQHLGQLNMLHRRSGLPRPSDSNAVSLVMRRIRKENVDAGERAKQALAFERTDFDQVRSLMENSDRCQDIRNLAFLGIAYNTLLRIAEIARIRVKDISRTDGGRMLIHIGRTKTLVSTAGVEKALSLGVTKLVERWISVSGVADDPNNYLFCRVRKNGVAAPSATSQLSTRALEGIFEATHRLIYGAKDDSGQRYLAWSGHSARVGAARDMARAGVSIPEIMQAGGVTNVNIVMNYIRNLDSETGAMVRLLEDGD"}, "[4]": {"molecular_target": "T4, Cre recombinase monomer with Y324Q mutation", "T4 chain": "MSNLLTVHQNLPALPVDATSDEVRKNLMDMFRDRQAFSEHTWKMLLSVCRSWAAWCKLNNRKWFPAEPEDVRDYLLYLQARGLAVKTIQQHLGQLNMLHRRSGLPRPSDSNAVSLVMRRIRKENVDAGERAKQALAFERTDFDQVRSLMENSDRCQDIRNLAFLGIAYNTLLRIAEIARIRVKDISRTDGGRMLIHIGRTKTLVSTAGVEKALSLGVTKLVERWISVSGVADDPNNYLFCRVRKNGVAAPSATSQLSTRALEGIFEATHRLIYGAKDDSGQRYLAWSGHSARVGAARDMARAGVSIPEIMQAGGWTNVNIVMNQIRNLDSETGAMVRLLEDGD"}, "[5]": {"molecular_target": "T5, Cre recombinase monomer with Y324L mutation", "T5 chain": "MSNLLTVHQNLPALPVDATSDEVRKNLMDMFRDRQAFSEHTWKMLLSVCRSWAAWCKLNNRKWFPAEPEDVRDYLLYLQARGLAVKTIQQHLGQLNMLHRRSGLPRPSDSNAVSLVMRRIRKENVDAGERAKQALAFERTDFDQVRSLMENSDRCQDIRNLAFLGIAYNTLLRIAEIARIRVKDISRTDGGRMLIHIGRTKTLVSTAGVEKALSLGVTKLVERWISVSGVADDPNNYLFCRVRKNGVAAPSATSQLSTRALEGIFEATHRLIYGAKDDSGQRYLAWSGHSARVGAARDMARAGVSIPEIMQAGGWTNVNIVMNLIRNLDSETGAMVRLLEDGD"}, "[6]": {"molecular_target": "T6, Cre recombinase monomer with W315M mutation", "T6 chain": "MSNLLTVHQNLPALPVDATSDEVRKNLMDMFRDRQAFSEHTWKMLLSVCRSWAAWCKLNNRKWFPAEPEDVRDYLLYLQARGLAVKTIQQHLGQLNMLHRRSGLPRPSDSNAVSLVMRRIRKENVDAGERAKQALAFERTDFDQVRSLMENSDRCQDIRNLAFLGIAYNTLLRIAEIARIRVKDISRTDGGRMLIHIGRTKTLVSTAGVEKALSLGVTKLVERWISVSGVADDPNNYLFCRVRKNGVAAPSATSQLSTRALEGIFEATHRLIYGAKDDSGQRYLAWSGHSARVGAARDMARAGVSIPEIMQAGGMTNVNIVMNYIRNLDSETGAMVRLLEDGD"}, "[7]": {"molecular_target": "T7, Cre recombinase monomer with W315N mutation", "T7 chain": "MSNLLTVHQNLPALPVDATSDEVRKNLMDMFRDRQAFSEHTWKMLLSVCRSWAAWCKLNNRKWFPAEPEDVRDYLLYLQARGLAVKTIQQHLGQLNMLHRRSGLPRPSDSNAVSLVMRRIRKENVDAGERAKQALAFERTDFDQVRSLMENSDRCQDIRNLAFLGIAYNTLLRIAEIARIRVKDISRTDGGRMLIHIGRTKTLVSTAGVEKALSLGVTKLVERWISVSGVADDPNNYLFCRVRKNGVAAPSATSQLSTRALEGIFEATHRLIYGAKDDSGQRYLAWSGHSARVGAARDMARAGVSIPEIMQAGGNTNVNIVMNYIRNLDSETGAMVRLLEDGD"}, "[8]": {"molecular_target": "T8, Cre recombinase monomer with W315I mutation", "T8 chain": "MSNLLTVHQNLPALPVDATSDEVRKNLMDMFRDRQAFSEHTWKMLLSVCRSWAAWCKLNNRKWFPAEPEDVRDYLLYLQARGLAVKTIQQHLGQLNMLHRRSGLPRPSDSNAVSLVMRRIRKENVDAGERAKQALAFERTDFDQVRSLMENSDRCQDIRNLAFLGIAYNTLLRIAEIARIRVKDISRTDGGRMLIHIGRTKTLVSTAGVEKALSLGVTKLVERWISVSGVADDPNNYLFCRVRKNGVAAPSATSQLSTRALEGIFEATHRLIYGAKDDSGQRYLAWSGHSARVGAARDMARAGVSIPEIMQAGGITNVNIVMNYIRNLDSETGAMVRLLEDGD"}},
  "data": [
    {"protein": "Cre recombinase monomer with Q311R mutation (protein) MSNLLTVHQNLPALPVDATSDEVRKNLMDMFRDRQAFSEHTWKMLLSVCRSWAAWCKLNNRKWFPAEPEDVRDYLLYLQARGLAVKTIQQHLGQLNMLHRRSGLPRPSDSNAVSLVMRRIRKENVDAGERAKQALAFERTDFDQVRSLMENSDRCQDIRNLAFLGIAYNTLLRIAEIARIRVKDISRTDGGRMLIHIGRTKTLVSTAGVEKALSLGVTKLVERWISVSGVADDPNNYLFCRVRKNGVAAPSATSQLSTRALEGIFEATHRLIYGAKDDSGQRYLAWSGHSARVGAARDMARAGVSIPEIMRAGGWTNVNIVMNYIRNLDSETGAMVRLLEDGD", "values": [
      {"measurement": "Median dimer activity (recombination on loxP)", "setting": "[1]", "value": 81, "unit": "%"},
      {"measurement": "Median dimer activity (recombination on loxP)", "setting": "[2]", "value": 76, "unit": "%"},
      {"measurement": "Median dimer activity (recombination on loxP)", "setting": "[3]", "value": 91, "unit": "%"},
      {"measurement": "Median dimer activity (recombination on loxP)", "setting": "[4]", "value": 72, "unit": "%"},
      {"measurement": "Median dimer activity (recombination on loxP)", "setting": "[5]", "value": 95, "unit": "%"},
      {"measurement": "Median dimer activity (recombination on loxP)", "setting": "[6]", "value": 95, "unit": "%"},
      {"measurement": "Median dimer activity (recombination on loxP)", "setting": "[7]", "value": 64, "unit": "%"},
      {"measurement": "Median dimer activity (recombination on loxP)", "setting": "[8]", "value": 92, "unit": "%"}
    ]}
  ]
}
